Read-outs that look alike come from different tables or passages of the source. Numbered stars: 1 amine (or outer) side, 2 acyl side, 3 side chain; on linkers, the order of the positions; unused ones are H or OH. Square brackets hold non-standard residues; d marks the D form. Side chains are listed from the residue outwards. Peptide text beside a SMILES is read from it. * marks the point of attachment. γGlu = O=C(O)[C@H](CCC(=O)[*:2])N[*:1]; Stearoyl = CCCCCCCCCCCCCCCCCC(=O)*; Aib = CC(C)(N)C(=O)O
T1: human GIP R (Homo sapiens, UniProt P48546)
T1 construct: expressed in transfected cells
T1 sequence (P48546 22-466): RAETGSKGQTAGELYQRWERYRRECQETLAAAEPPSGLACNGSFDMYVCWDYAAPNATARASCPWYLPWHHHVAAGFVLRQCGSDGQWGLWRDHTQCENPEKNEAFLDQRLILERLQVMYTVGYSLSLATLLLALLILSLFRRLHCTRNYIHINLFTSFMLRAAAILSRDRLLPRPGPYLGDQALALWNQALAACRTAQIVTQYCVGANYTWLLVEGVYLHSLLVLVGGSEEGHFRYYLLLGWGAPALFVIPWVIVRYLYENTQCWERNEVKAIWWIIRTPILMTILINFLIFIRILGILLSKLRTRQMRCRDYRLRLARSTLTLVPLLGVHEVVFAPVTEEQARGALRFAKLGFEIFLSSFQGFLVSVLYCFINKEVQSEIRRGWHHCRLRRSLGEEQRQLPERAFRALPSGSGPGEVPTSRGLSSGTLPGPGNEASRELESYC

T2: human GIP receptor (human, UniProt P48546 22-466)
T2 sequence: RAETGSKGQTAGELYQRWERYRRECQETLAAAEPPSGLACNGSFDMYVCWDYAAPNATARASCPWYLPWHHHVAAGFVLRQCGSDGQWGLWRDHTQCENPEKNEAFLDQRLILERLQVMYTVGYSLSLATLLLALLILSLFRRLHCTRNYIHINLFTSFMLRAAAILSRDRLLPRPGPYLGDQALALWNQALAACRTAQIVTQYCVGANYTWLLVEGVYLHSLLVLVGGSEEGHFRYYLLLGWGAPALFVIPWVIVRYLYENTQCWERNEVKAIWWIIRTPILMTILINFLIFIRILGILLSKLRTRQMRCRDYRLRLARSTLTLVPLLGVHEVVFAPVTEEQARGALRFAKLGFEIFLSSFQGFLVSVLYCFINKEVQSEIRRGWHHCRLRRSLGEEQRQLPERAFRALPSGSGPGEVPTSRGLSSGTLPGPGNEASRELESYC


Tests used:
[1] = molecular target: T3, human GCG R (Homo sapiens, UniProt P47871); assay: cAMP induction in HEK293 cells expressing human GCG R (AlphaScreen cAMP kit); assay type: cell-based; conditions: Table 2; average EC50, cAMP, HEK293 cells expressing human GCG R; read-out: GCG R (EC50 in nM)
T3 construct: expressed in transfected cells
Method: Briefly, HEK293 cells expressing the human GIP R, GLP-1 R or GCG R (stable cell lines generated through transfection of the cDNA for human GIP R, GLP-1 R or GCG R and selection of stable clones) were seeded at 30,000 cells/well in 96-well microtiter plates coated with 0.01% poly-L-lysine, and grown for 1 day in culture in 200 μl growth medium (DMEM, 10% FCS, Penicillin (100 IU/ml), Streptomycin (100 μg/ml)). On the day of analysis, growth medium was removed and the cells were washed once with 150 μl Tyrode's buffer (Tyrode's Salts (9.6 g/l), 10 mM HEPES, pH 7.4). […] The Assay buffer was removed and cells are lysed in 80 μl Lysis buffer (0.1% w/v BSA, 5 mM HEPES, 0.3% v/v Tween-20) per well. From each well 10 μl of lysed cells were transferred to a 384-well plate and mixed with 15 μl bead-mix (1 Unit/15 μl anti-cAMP Acceptor Beads, 1 Unit/15 μl Donor Beads, and 1 Unit/15 μl Biotinylated cAMP in Assay Buffer). The plates were mixed and incubated in the dark for an hour at room temperature before measuring using an Envision™ plate reader (Perkin-Elmer).
The resulting cAMP curves were plotted as absolute cAMP concentrations (nM) over log (test compound concentration) and analyzed using the curve fitting program XLfit.
Parameters calculated to describe both the potency as well as the agonistic activity of each test compound on the receptors were:
EC50, a concentration resulting in a half-maximal elevation of cAMP levels, reflecting the potency of the test compound.

[2] = molecular target: T4, human GLP-1 R (Homo sapiens, UniProt P43220); assay: cAMP induction in HEK293 cells expressing human GLP-1 R (AlphaScreen cAMP kit); assay type: cell-based; conditions: Table 2; average EC50, cAMP, HEK293 cells expressing human GLP-1 R; read-out: GLP1 R (EC50 in nM)
T4 construct: expressed in transfected cells

[3] = molecular target: T1, human GIP R; assay: cAMP induction in HEK293 cells expressing human GIP R (AlphaScreen cAMP kit); assay type: cell-based; conditions: read-out: GIP R (EC50 in nM)
[4] = molecular target: T5, human glucagon-like peptide 1 receptor (human, UniProt P43220 24-463); assay: cell-based or functional assay
[5] = molecular target: T2, human GIP receptor; assay: cell-based or functional assay
[6] = molecular target: T6, human glucagon receptor (human, UniProt P47871 26-477); assay: cell-based or functional assay
[7] = molecular target: T5, human glucagon-like peptide 1 receptor; assay: cell-based or functional assay; remark: listed apart in the source
[8] = molecular target: T2, human GIP receptor; assay: cell-based or functional assay; remark: listed apart in the source
[9] = molecular target: T6, human glucagon receptor; assay: cell-based or functional assay; remark: listed apart in the source

T6 sequence (P47871 26-477): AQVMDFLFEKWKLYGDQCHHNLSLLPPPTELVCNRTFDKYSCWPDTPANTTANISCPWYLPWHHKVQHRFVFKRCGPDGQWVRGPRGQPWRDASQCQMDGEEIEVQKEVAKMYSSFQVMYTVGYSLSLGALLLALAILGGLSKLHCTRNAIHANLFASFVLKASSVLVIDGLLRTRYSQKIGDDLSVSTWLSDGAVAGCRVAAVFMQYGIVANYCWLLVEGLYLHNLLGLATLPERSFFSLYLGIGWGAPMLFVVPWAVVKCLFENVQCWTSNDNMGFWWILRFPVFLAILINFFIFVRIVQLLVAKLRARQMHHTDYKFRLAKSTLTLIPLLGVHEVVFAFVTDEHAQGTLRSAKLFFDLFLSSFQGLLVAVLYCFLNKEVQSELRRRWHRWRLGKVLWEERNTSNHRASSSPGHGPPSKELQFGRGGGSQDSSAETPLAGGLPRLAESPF
T3 sequence (P47871 26-477): as above
T4 sequence (P43220 24-463): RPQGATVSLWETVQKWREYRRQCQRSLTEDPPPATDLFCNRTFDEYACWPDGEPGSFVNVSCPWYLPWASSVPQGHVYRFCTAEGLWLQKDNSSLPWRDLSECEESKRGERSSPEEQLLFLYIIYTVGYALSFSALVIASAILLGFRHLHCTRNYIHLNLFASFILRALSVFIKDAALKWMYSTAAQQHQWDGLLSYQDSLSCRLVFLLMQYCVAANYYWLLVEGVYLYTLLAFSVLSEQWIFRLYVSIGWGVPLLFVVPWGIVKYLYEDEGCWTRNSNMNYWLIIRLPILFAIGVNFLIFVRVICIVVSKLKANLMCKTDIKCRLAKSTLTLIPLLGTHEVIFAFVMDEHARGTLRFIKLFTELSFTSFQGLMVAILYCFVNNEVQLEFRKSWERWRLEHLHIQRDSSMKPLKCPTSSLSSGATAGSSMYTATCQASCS

| EC50 (cAMP induction) [4] | EC50 (cAMP induction) [5] | EC50 (cAMP induction) [6] | EC50 (cAMP induction) [7] | EC50 (cAMP induction) [8] | EC50 (cAMP induction) [9] | Molecule | EC50 [1] | EC50 [2] | EC50 ([3]; Table 2, average EC50, cAMP) | EC50 ([3]; Table 2b (most comprehensive data), average EC50, cAMP) |
| --- | --- | --- | --- | --- | --- | --- | --- | --- | --- | --- |
| – | – | – | – | – | – | CC[C@H](C)[C@H](NC(=O)[C@H](CO)NC(=O)[C@H](Cc1ccc(O)cc1)NC(=O)[C@H](CC(=O)O)NC(=O)[C@H](CO)NC(=O)[C@@H](NC(=O)[C@H](Cc1ccccc1)NC(=O)[C@@H](NC(=O)CNC(=O)[C@H](CCC(N)=O)NC(=O)C(C)(C)NC(=O)[C@@H](N)Cc1ccc(O)cc1)[C@@H](C)O)[C@@H](C)O)C(=O)N[C@@H](Cc1ccc(O)cc1)C(=O)N[C@@H](CC(C)C)C(=O)N[C@@H](CC(=O)O)C(=O)N[C@@H](CO)C(=O)N[C@@H](CCCCN)C(=O)N[C@@H](C)C(=O)N[C@@H](C)C(=O)N[C@@H](Cc1c[nH]cn1)C(=O)N[C@@H](CC(=O)O)C(=O)N[C@@H](Cc1ccccc1)C(=O)N[C@H](C(=O)N[C@@H](CCC(=O)O)C(=O)N[C@@H](Cc1c[nH]c2ccccc12)C(=O)N[C@@H](CC(C)C)C(=O)N[C@@H](CC(C)C)C(=O)N[C@@H](CO)C(=O)N[C@@H](C)C(=O)NCC(=O)N1CCC[C@H]1C(=O)N[C@@H](CO)C(=O)N[C@@H](CO)C(=O)NCC(=O)N[C@@H](C)C(=O)N1CCC[C@H]1C(=O)N1CCC[C@H]1C(=O)N1CCC[C@H]1C(=O)N[C@@H](CO)C(N)=O)C(C)C [Compound 13] (HELM PEPTIDE1{Y.[Aib].Q.G.T.F.T.S.D.Y.S.I.Y.L.D.S.K.A.A.H.D.F.V.E.W.L.L.S.A.G.P.S.S.G.A.P.P.P.S.[am]}$$$$V2.0) | 0.24 nM | 0.0099 nM | 0.083 nM | 0.01 nM |
| 0.022 nM | 0.015 nM | 0.022 nM | 0.015 nM | 0.13 nM | 0.022 nM | YAQGTFTSDYSKYLDSKAAHDFVEWLLRA (HELM PEPTIDE1{Y.[Aib].Q.G.T.F.T.S.D.Y.S.K.Y.L.D.S.K.A.A.H.D.F.V.E.W.L.L.R.A.[am]}$$$$V2.0; SMILES CC(C)C[C@H](NC(=O)[C@H](CC(C)C)NC(=O)[C@H](Cc1c[nH]c2ccccc12)NC(=O)[C@H](CCC(=O)O)NC(=O)[C@@H](NC(=O)[C@H](Cc1ccccc1)NC(=O)[C@H](CC(=O)O)NC(=O)[C@H](Cc1c[nH]cn1)NC(=O)[C@H](C)NC(=O)[C@H](C)NC(=O)[C@H](CCCCN)NC(=O)[C@H](CO)NC(=O)[C@H](CC(=O)O)NC(=O)[C@H](CC(C)C)NC(=O)[C@H](Cc1ccc(O)cc1)NC(=O)[C@H](CCCCN)NC(=O)[C@H](CO)NC(=O)[C@H](Cc1ccc(O)cc1)NC(=O)[C@H](CC(=O)O)NC(=O)[C@H](CO)NC(=O)[C@@H](NC(=O)[C@H](Cc1ccccc1)NC(=O)[C@@H](NC(=O)CNC(=O)[C@H](CCC(N)=O)NC(=O)C(C)(C)NC(=O)[C@@H](N)Cc1ccc(O)cc1)[C@@H](C)O)[C@@H](C)O)C(C)C)C(=O)N[C@@H](CCCNC(=N)N)C(=O)N[C@@H](C)C(N)=O) [Compound 3] | – | – | – | – |
| 0.16 nM | 0.011 nM | 0.13 nM | – | – | – | H-Y[Aib]QGTFTSDYSIALEKK([Peg3-Peg3-γGlu-Stearoyl])AQRAFVEWLLAQK-NH2 [Compound 46] | – | – | – | – |
| 0.013 nM | 0.033 nM | 0.013 nM | 0.033 nM | 0.38 nM | 0.013 nM | H-YSQGTFTSDYSKYLDSKAAHDFVEWLLRA-NH2 [Compound 1] | – | – | – | – |
